Reference: patent US20250171558A1 (published 2025)

Legend:
Test in all cases: SPR; human
SDIE = molecular target: SDIE
Afucosylated = molecular target: Afucosylated
human FcγRIIB = molecular target: T1, human FcγRIIB (human, UniProt P31994 43-217)
T1 chain: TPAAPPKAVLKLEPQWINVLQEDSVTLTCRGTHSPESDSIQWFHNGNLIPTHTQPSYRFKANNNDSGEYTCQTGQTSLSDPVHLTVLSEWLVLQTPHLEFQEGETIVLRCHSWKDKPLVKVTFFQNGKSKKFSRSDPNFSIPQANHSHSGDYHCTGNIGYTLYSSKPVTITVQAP

Binder	Kd (SDIE)	Kd (Afucosylated)	Kd (human FcγRIIB)
FcγRIIb (receptor) TPAAPPKAVLKLEPQWINVLQEDSVTLTCRGTHSPESDSIQWFHNGNLIPTHTQPSYRFKANNNDSGEYTCQTGQTSLSDPVHLTVLSEWLVLQTPHLEFQEGETIVLRCHSWKDKPLVKVTFFQNGKSKKFSRSDPNFSIPQANHSHSGDYHCTGNIGYTLYSSKPVTITVQAP	0.665 µM	5.88 µM	–
GAALIE (protein) ASTKGPSVFPLAPSSKSTSGGTAALGCLVKDYFPEPVTVSWNSGALTSGVHTFPAVLQSSGLYSLSSVVTVPSSSLGTQTYICNVNHKPSNTKVDKRVEPKSCDKTHTCPPCPAPELLAGPSVFLFPPKPKDTLMISRTPEVTCVVVDVSHEDPEVKFNWYVDGVEVHNAKTKPREEQYNSTYRVVSVLTVLHQDWLNGKEYKCKVSNKALPLPEEKTISKAKGQPREPQVYTLPPSREEMTKNQVSLTCLVKGFYPSDIAVEWESNGQPENNYKTTPPVLDSDGSFFLYSKLTVDKSRWQQGNVFSCSVMHEALHNHYTQKSLSLSPGK	–	–	19.6 µM
